Results on four substances are retold here after patent US20210292396A1.

Values joined by “and” are separate entries in the source; they are usually repeats but may differ in a detail not shown here. Equal values may be shown once.

The assay concerns the target gp120 (isolate: 92BR020) (HIV).
In the case of 2G12 (antibody), the concentration for a half-maximal effect (EC50 (read off the curve)) is 0.07 µg/mL.
Take PGT135 (antibody): the concentration giving a half-maximal response (EC50 (read off the curve)) is 0.05 µg/mL and 0.1 µg/mL.
Substance VRC01 (antibody) returned an EC50 (read off the curve) of 0.07 µg/mL.
As to PGT128 (antibody), the concentration giving a half-maximal response (EC50 (read off the curve)) was 0.05 µg/mL.

The term EC50 (read off the curve) denotes the concentration giving half of the maximal effect. High values mean a less potent agent, low ones a more potent agent.
